Consider one molecule from paper PMC11615309 (Nature Communications, 2024).

This assay has as its target T1, 6xHis-tagged FAT1 cadherin #28-33 (3024-3789 aa) (UniProt Q14517 3024-3789).
T1 sequence: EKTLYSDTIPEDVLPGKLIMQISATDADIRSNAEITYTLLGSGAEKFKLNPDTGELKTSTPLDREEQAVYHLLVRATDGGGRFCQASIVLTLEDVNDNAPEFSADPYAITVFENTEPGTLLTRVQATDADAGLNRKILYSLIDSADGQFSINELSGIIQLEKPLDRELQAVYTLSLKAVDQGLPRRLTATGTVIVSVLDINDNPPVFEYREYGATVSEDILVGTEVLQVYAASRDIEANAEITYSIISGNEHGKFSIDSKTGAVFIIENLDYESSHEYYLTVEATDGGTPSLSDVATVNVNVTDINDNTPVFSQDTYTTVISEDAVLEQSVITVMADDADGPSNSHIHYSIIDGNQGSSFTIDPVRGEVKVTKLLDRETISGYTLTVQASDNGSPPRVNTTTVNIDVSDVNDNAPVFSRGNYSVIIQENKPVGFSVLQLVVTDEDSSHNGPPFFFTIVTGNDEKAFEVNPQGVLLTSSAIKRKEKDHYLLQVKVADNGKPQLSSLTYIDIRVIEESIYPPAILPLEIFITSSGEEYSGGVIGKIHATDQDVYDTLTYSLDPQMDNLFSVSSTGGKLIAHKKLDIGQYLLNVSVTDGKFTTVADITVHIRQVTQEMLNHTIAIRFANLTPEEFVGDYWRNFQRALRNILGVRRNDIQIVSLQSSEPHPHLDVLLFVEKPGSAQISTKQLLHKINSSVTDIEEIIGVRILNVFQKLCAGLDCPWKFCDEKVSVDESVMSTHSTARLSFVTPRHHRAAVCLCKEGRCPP
Put plainly: pull-down.

B1: GST-OLFM4 (OLFM4 without signal peptide) (domain or fragment)
chain: not shown
With B1, the binding result is listed as “binds”.
